Here are results for one protein from publication doi:10.1101/2021.11.02.467024 (bioRxiv, 2021).

This data set concerns the molecule itself. Put plainly: cross-linking.

B1: IMPDH1 (enzyme)
chain: not shown
For the protein B1, the “stoichiometry N” value worked out at 4.
